From PMC5440690, “Sirt1 carboxyl-domain is an ATP-repressible domain that is transferrable to other proteins” (Nature Communications, 2017)

Substrate: NC(=O)c1ccc[n+]([C@@H]2O[C@H](COP(=O)([O-])OP(=O)(O)OC[C@H]3O[C@@H](n4cnc5c(N)ncnc54)[C@H](O)[C@@H]3O)[C@@H](O)[C@H]2O)c1
Assay: steady-state deacetylation kinetics (Km)
Format: biochemical, Mus musculus

B1: Sirt1 (Mus musculus) (protein)
chain: ADEVALALQAAGSPSAAAAMEAASQPADEPLRKRPRRDGPGLGRSPGEPSAAVAPAAAGCEAASAAAPAALWREAAGAAASAEREAPATAVAGDGDNGSGLRREPRAADDFDDDEGEEEDEAAAAAAAAAIGYRDNLLLTDGLLTNGFHSCESDDDDRTSHASSSDWTPRPRIGPYTFVQQHLMIGTDPRTILKDLLPETIPPPELDDMTLWQIVINILSEPPKRKKRKDINTIEDAVKLLQECKKIIVLTGAGVSVSCGIPDFRSRDGIYARLAVDFPDLPDPQAMFDIEYFRKDPRPFFKFAKEIYPGQFQPSLCHKFIALSDKEGKLLRNYTQNIDTLEQVAGIQRILQCHGSFATASCLICKYKVDCEAVRGDIFNQVVPRCPRCPADEPLAIMKPEIVFFGENLPEQFHRAMKYDKDEVDLLIVIGSSLKVRPVALIPSSIPHEVPQILINREPLPHLHFDVELLGDCDVIINELCHRLGGEYAKLCCNPVKLSEITEKPPRPQKELVHLSELPPTPLHISEDSSSPERTVPQDSSVIATLVDQATNNNVNDLEVSESSCVEEKPQEVQTSRNVENINVENPDFKAVGSSTADKNERTSVAETVRKCWPNRLAKEQISKRLEGNQYLFVPPNRYIFHGAEVYSDSEDDVLSSSSCGSNSDSGTCQSPSLEEPLEDESEIEEFYNGLEDDTERPECAGGSGFGADGGDQEVVNEAIATRQELTDVNYPSDKS
notes: recombinant WT Sirt1
Km: 203.08 ± 13.24 µM
